Reference: patent US20250129166A1 (Five Prime, published 2025)
Changes are numbered by the printed parent chain.

B1: P1-072006 (P1-061029_Y32E) (antibody, human IgG1, kappa, V domains shown)
VH: EVQLVESGGGLVQPGKSLRLSCAASGFTLDDEAMHWVRQAPGKGLEWVSGINWNSANIGYADSVKGRFTISRDNAKNSLYLQMNSLRTEDTALYYCAKVPGYSGGWIDAFDVWGQGTMVTVSS
VL: not shown
notes: also called P1-72006
B2: P1-072002 (P1-061029_F100fE) (antibody, human IgG1, kappa, V domains shown)
VH: B1 VH with E32Y, F110E
VL: not shown
notes: also called P1-72002
B3: P1-071793 (P1-070916_HC_K16R_T84A, FW revertant) (antibody, V domains shown)
VH: B1 VH with K16R, D30E, E32Y, T88A, F110E, V112D
VL: not shown
notes: VH/VL only
B4: P1-071777 (P1-070868_HC_K16R, FW revertant) (antibody, V domains shown)
VH: B1 VH with K16R, D30E, N57E, G104H, F110E
VL: not shown
notes: VH/VL only
B5: P1-071791 (P1-070908_HC_T84A, FW revertant) (antibody, V domains shown)
VH: B1 VH with D30E, E32Y, N52D, T88A, F110E, V112D
VL: not shown
notes: VH/VL only
B6: P1-071779 (P1-070868_HC_T84A, FW revertant) (antibody, V domains shown)
VH: B1 VH with D30E, N57E, T88A, G104H, F110E
VL: not shown
notes: VH/VL only
B7: P1-071767 (P1-068761_HC_T84A, FW revertant) (antibody, V domains shown)
VH: B1 VH with D30E, A56E, N57E, T88A, G104H, F110E
VL: not shown
notes: VH/VL only
B8: P1-072000 (P1-061029_F100fE_V102D) (antibody, human IgG1, kappa, V domains shown)
VH: B1 VH with E32Y, F110E, V112D
VL: not shown
notes: also called P1-72000
B9: P1-071789 (P1-070908_HC_K16R, FW revertant) (antibody, V domains shown)
VH: B1 VH with K16R, D30E, E32Y, N52D, F110E, V112D
VL: not shown
notes: VH/VL only
B10: P1-071771 (P1-068767_HC_K16R, FW revertant) (antibody, V domains shown)
VH: B1 VH with K16R, D30E, E32Y, N52D, A56E, F110E, V112D
VL: not shown
notes: VH/VL only
B11: P1-071787 (P1-070908_HC_K16R_T84A, FW revertant) (antibody, V domains shown)
VH: B1 VH with K16R, D30E, E32Y, N52D, T88A, F110E, V112D
VL: not shown
notes: VH/VL only
B12: P1-071773 (P1-068767_HC_T84A, FW revertant) (antibody, V domains shown)
VH: B1 VH with D30E, E32Y, N52D, A56E, T88A, F110E, V112D
VL: not shown
notes: VH/VL only
B13: P1-071765 (P1-068761_HC_K16R, FW revertant) (antibody, V domains shown)
VH: B1 VH with K16R, D30E, A56E, N57E, G104H, F110E
VL: not shown
notes: VH/VL only
B14: P1-072004 (P1-061029_V102D) (antibody, human IgG1, kappa, V domains shown)
VH: B1 VH with E32Y, V112D
VL: not shown
notes: also called P1-72004
B15: P1-071795 (P1-070916_HC_K16R, FW revertant) (antibody, V domains shown)
VH: B1 VH with K16R, D30E, E32Y, F110E, V112D
VL: not shown
notes: VH/VL only
B16: P1-070868 (P1-068761_E55A) IgG1.3 (antibody, V domains shown)
VH: B1 VH with D30E, N57E, G104H, F110E
VL: not shown
notes: IgG1.3
B17: P1-071781 (P1-070906_HC_K16R_T84A, FW revertant) (antibody, V domains shown)
VH: B1 VH with K16R, D30E, E32Y, A56E, T88A, F110E, V112D
VL: not shown
notes: VH/VL only
B18: P1-071785 (P1-070906_HC_T84A, FW revertant) (antibody, V domains shown)
VH: B1 VH with D30E, E32Y, A56E, T88A, F110E, V112D
VL: not shown
notes: VH/VL only
B19: P1-071797 (P1-070916_HC_T84A, FW revertant) (antibody, V domains shown)
VH: B1 VH with D30E, E32Y, T88A, F110E, V112D
VL: not shown
notes: VH/VL only
B20: P1-071763 (P1-068761_HC_K16R_T84A, FW revertant) (antibody, V domains shown)
VH: B1 VH with K16R, D30E, A56E, N57E, T88A, G104H, F110E
VL: not shown
notes: VH/VL only
B21: P1-072008 (P1-061029_Y32E_F100fE) (antibody, human IgG1, kappa, V domains shown)
VH: B1 VH with F110E
VL: not shown
notes: also called P1-72008
B22: P1-071775 (P1-070868_HC_K16R_T84A, FW revertant) (antibody, V domains shown)
VH: B1 VH with K16R, D30E, N57E, T88A, G104H, F110E
VL: not shown
notes: VH/VL only
B23: P1-071769 (P1-068767_HC_K16R_T84A, FW revertant) (antibody, V domains shown)
VH: B1 VH with K16R, D30E, E32Y, N52D, A56E, T88A, F110E, V112D
VL: not shown
notes: VH/VL only
B24: P1-071783 (P1-070906_HC_K16R, FW revertant) (antibody, V domains shown)
VH: B1 VH with K16R, D30E, E32Y, A56E, F110E, V112D
VL: not shown
notes: VH/VL only
B25: P1-068761_E30D (antibody, human IgG1, kappa, V domains shown)
VH: B1 VH with A56E, N57E, G104H, F110E
VL: not shown
notes: also called P1-070864
B26: P1-068761_E30D_H100G (antibody, human IgG1, kappa, V domains shown)
VH: B1 VH with A56E, N57E, F110E
VL: not shown
notes: also called P1-070894
B27: P1-068761_E30D_E55A (antibody, human IgG1, kappa, V domains shown)
VH: B1 VH with N57E, G104H, F110E
VL: not shown
notes: also called P1-070890
B28: P1-068761_E56N_H100G (antibody, human IgG1, kappa, V domains shown)
VH: B1 VH with D30E, A56E, F110E
VL: not shown
notes: also called P1-070900
B29: P1-068761_E55A_E56N (antibody, human IgG1, kappa, V domains shown)
VH: B1 VH with D30E, G104H, F110E
VL: not shown
notes: also called P1-070878
B30: P1-068761_E56N (antibody, human IgG1, kappa, V domains shown)
VH: B1 VH with D30E, A56E, G104H, F110E
VL: not shown
notes: also called P1-070870
B31: P1-068761_E30D_E56N (antibody, human IgG1, kappa, V domains shown)
VH: B1 VH with A56E, G104H, F110E
VL: not shown
notes: also called P1-070892
B32: P1-068761_H100G (antibody, human IgG1, kappa, V domains shown)
VH: B1 VH with D30E, A56E, N57E, F110E
VL: not shown
notes: also called P1-070872

Biological target: T1, monovalent hVISTA-ECD (amino acids 32-193 of SEQ ID NO: 1 with a 7xHis tail) (human, UniProt Q9H7M9 33-193)
T1 construct: also called huVISTA-His; human VISTA-ECD
T1 sequence (Q9H7M9 other isoform, or with tags, fused parts or gaps limits assumed): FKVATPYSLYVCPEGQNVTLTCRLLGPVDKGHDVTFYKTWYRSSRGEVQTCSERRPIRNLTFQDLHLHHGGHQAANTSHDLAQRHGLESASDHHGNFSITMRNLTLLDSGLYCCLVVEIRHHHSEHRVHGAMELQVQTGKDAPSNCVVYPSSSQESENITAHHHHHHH
Assay: SPR, mAb on Protein A, 37C, pH 7.4
Description: (§1) Binding of several preparations of each of the '029 progeny clones and of the parent '029 antibodies, formatted as IgG1.3 antibodies, to human VISTA at pH 6.0 and 7.4 was measured by Surface plasmon resonance (SPR). SPR analysis was performed to measure koff and KD binding affinity measurements for VISTA Abs at acidic and neutral pHs using a Biacore® T100 instrument (GE Healthcare). Protein A (ThermoFisher Scientific catalog #21181) was diluted to 20 μg/ml in 10 mM sodium acetate pH 4.5 and immobilized onto flow cells of a CM5 biosensor following the manufacturer's amine coupling protocol (GE Healthcare), targeting 2,000 RU immobilization density of Protein A per flow cell. SPR experiments were conducted at 37° C. using PBST (137 mM sodium chloride, 2.7 mM potassium chloride, 10 mM phosphate buffer, 0.05% Tween® 20) running buffer at pH 7.4 and 6.0. Antibodies were diluted to 25 nM in PBST pH 7.4, and were captured across active biosensor flow cells at 5 ul/min for 60 seconds. A concentration series of 50-5 nM monovalent hVISTA-ECD (SEQ ID NO: 325) was prepared in pH 7.4 and 6.0 running buffers, and was injected over the captured antibodies at 40 ul/min to measure association and dissociation. Two 15 second injections of 10 mM glycine pH 1.5 were used to regenerate the Protein A capture surface between assay cycles. Rate constants ka (kₒₙ) and kd (koff) were derived from reference flow cell and 0 nM blank-subtracted sensorgrams, and were fit to a 1:1 binding model in Biacore® T200 Evaluation Software v.2.0. The affinity constant, KD was calculated as the ratio of rate constants koff/kₒₙ for each VISTA antibody.

| Binder | Kd [nM] | koff [s⁻¹] | kon [M⁻¹ s⁻¹] |
| --- | --- | --- | --- |
| B1 | 540 | 0.0063 | 12000 |
| B2 | 190 | 0.0085 | 44000 |

Biological target: T1, monovalent hVISTA-ECD (amino acids …)
Assay: SPR, mAb on Protein A, 37C, pH 6.0; pH 6.0
Description: as §1

| Binder | Kd [nM] | koff [s⁻¹] | kon [M⁻¹ s⁻¹] |
| --- | --- | --- | --- |
| B3 | 8.1 | 0.0017 | 210000 |
| B4 | 6.4 | 0.0017 | 270000 |
| B5 | 11 | 0.0027 | 240000 |
| B6 | 7 | 0.0018 | 260000 |
| B7 | 5.1 | 0.0016 | 310000 |
| B8 | 12 | 0.0023 | 200000 |
| B9 | 13 | 0.0026 | 210000 |
| B10 | 11 | 0.0026 | 250000 |
| B11 | 13 | 0.0027 | 210000 |
| B12 | 9.8 | 0.0026 | 270000 |
| B13 | 5 | – | 280000 |
| B14 | 180 | 0.025 | 140000 |
| B15 | 8.1 | 0.0017 | 210000 |
| B16 | 7 | 0.0018 | 260000 |
| B17 | 7.7 | 0.0017 | 220000 |
| B18 | 6.7 | 0.0017 | 250000 |
| B19 | 7.7 | 0.0017 | 220000 |
| B20 | 4.9 | 0.0014 | 290000 |
| B21 | 88 | 0.024 | 270000 |
| B22 | 6.9 | 0.0017 | 250000 |
| B23 | 11 | 0.0026 | 240000 |
| B24 | 7.6 | 0.0017 | 220000 |

Biological target: T1, monovalent hVISTA-ECD (amino acids …)
Assay: SPR, mAb captured on Protein A, hVISTA-ECD analyte, 37 C, pH 6.0
Description: (§2) Binding kinetics were measured using a Biacore® T100 instrument (GE Healthcare). Protein A (ThermoFisher Scientific catalog #21181) was diluted to 20 μg/ml in 10 mM sodium acetate pH 4.5 and immobilized onto flow cells of a CM5 biosensor following the manufacturer's amine coupling protocol (GE Healthcare), targeting 2,000 RU immobilization density of Protein A per flow cell. The assay was conducted at 37° C. using PBST (137 mM sodium chloride, 2.7 mM potassium chloride, 10 mM phosphate buffer, 0.05% Tween 20) running buffer at pH 7.4, 6.7 and 6.0. Antibodies were diluted to 25 nM in PBST pH 7.4, and were captured across active biosensor flow cells at 5 ul/min for 40 seconds. A concentration series of 100-10 nM monovalent hVISTA-ECD (SEQ ID NO: 325) was prepared in pH 7.4, 6.7 and 6.0 running buffers, and was injected over the captured antibodies at 40 ul/min to measure association and dissociation. Two 15 second injections of 10 mM glycine pH 1.5 were used to regenerate the Protein A capture surface between assay cycles. Rate constants ka (kon) and kd (koff) were derived from reference flow cell and 0 nM blank-subtracted sensorgrams, and were fit to a 1:1 binding model in Biacore® T200 Evaluation Software v.2.0.
(§3) The affinity constant, KD was calculated as the ratio of rate constants koff/kₒₙ for each VISTA antibody. The % Rmax was calculated to compare how pH affects an antibody's binding capacity for VISTA, and represents the measured maximal VISTA binding response relative to the expected maximal VISTA binding response. The % Rmax is defined as the ratio of the reference-subtracted ‘binding’ report point response at the end of the 100 nM VISTA injection for each antibody (Rmax) relative to the expected VISTA binding response (Rexp). Rexp is calculated as Rexp=[(VISTA-ECD molecular weight/mAb molecular weight)×(mAb ‘capture’ report point response (RUs)]×2 binding sites per mAb.

| Binder | koff [s⁻¹] |
| --- | --- |
| B25 | 0.0062 |
| B26 | 0.021 |
| B27 | 0.0074 |
| B28 | 0.0081 |
| B29 | 0.0056 |
| B30 | 0.0055 |
| B16 | 0.0017 |
| B31 | 0.034 |
| B32 | 0.0052 |

Biological target: T1, monovalent hVISTA-ECD (amino acids …)
Assay: SPR, mAb captured on Protein A, hVISTA-ECD analyte, 37 C, pH 6.7
Description: as §2, §3

| Binder | koff [s⁻¹] |
| --- | --- |
| B25 | 0.018 |
| B29 | 0.029 |
| B16 | 0.0064 |
| B32 | 0.014 |

Biological target: T1, monovalent hVISTA-ECD (amino acids …)
Assay: SPR, mAb on Protein A, 37C, pH 6.0
Description: as §1

| Binder | Kd [nM] | koff [s⁻¹] | kon [M⁻¹ s⁻¹] |
| --- | --- | --- | --- |
| B1 | 3.5 | 0.0012 | 340000 |
| B2 | 2.5 | 0.0016 | 650000 |
